Two molecules from publication PMC9169858 (2022) can be followed below.

Several values for one entry are separate records, joined by “and”; a condition that tells them apart may be missing. Equal values may be shown once.

This assay concerns the target SARS-CoV-2 main protease (M^pro), pGEX4T-1 construct, GST removed by thrombin (SARS-CoV-2, UniProt P0DTD1). As to the kind of experiment: BLI. A general note: In BLI a coated tip is dipped into the sample, and binding shifts an interference pattern.

B1: NB2E3 (VHH)
VHH: QVQLQESGGGSVQAGGSLRLSCAVSGFIATSCALGWFRQAPGKEREGIATITTDGTTYYVDSVKGRFTISQDNAKNTVALQMNSLKPEDTAMYYCKLCCSGQYCAWGQGTQVTVSS
For B1, the dissociation constant Kd – broadly, the free concentration of one partner at which half of the binding sites on the other are occupied at equilibrium, for simple one-to-one binding – amounted to 2.7 nM.

B2: NB1D10 (VHH)
VHH: QVQLQESGGGSVQAGGSLRLSCAVSGYSYCNYDLGWFRQAPGKEREGIATIDSDGNTYYVDSVKGRFTISQDNAKNTVALQMNSLKPEDTAMYYCKVGSIASSVPEVSCPPSAPFGYWGQGTQVTVSS
As to B2, the Kd is 0.43 nM and 0.431 nM.
